Laboratory results taken from publication PMC12428753, “Heparanase-Neutralizing Monoclonal Antibody (mAb A54) Attenuates Tumor Growth and Metastasis” (Cells, 2025).

Key:
latent 65 kDa heparanase [1] = target: T1, latent 65 kDa heparanase (Homo sapiens, UniProt Q9Y251); assay: ELISA; 96-well microtiter plate coated with latent 65 kDa heparanase (Hpa65); purified mAb A54 or control mouse IgG added at the indicated concentrations; settings: both partners purified
T1 construct: heparanase, human, unprocessed 65 kDa latent proenzyme on one chain ('full-length latent heparanase'); also called Hpa65; pro-heparanase; source: recombinant

latent 65 kDa heparanase [2] = target: T1, latent 65 kDa heparanase; assay: SPR; Biacore analysis; orientation and conditions not told; settings: both partners purified
[3] = target: T2, mature heparanase (active heterodimer of 8 kDa and 50 kDa subunits) (human)
T2 sequence (Q9Y251 whole entry, looked up): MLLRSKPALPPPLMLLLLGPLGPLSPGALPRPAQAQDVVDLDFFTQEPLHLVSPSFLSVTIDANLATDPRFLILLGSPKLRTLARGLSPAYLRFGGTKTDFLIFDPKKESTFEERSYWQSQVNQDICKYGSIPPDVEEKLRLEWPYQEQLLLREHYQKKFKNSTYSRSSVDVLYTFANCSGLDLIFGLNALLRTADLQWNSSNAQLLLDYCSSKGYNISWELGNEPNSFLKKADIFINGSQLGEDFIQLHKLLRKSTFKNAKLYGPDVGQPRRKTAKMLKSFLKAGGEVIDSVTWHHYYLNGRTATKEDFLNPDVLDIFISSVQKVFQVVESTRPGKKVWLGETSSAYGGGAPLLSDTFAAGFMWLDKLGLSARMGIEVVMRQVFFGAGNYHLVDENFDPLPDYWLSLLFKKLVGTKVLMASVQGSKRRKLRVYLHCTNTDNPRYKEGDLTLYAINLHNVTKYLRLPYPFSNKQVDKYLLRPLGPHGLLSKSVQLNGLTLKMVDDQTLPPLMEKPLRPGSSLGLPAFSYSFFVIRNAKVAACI

[4] = target: T3, heparanase protein (form not stated) (human) (UniProt Q9Y251); assay: not stated; binding affinity of the humanized vs. the mouse A54 antibody for the heparanase protein; service by GenScript
T3 sequence: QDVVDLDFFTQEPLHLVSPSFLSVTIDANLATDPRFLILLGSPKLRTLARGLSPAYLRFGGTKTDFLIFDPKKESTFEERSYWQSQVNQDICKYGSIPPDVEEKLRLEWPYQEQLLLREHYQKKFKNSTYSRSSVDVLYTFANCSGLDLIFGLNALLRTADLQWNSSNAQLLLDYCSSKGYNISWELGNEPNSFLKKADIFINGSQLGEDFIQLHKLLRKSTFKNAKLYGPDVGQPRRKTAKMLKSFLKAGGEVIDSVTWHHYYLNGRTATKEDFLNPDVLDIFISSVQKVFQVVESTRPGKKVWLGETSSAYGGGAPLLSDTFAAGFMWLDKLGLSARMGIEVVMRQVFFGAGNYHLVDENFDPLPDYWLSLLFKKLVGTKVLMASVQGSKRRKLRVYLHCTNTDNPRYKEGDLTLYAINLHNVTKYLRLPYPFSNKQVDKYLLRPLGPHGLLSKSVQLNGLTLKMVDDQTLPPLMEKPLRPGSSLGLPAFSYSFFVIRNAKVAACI

B1: A54 anti-heparanase monoclonal antibody (purified from hybridoma A54) (antibody, V domains shown)
VH: QVQLQQSGAELAKPGASVRMSCKASGYTFTNYWMHWVKQRPGQGLEWIGYINPTTGYTEYNQKFKDKATLTADKSSSTAYMQLSSLTSEDSAVYYCARGGAGYDYDEDYAMDYWGQGTSVTVSS
VL: DIVLTQSPASLAVSLGQRATISCRASESVEYFGTSYMNWYQQKPGQPPKLLIYLASILESGIPARFSGSGSGTDFTLNIHPVEEEDAATYYCQQSNEDPYTFGGGTKLEIK
notes: VH of A54; the Fab heavy chain is in the deposited structure PDB 9S8W; mouse IgG1 heavy chain constant region (subclass found with an isotyping kit); CH1 is also in PDB 9S8W; VL of A54; the Fab light chain is in the deposited structure PDB 9S8W; mouse kappa light chain constant region (IgG1-Kappa is stated for the recombinant version); also in PDB 9S8W; Mouse IgG1; whole IgG; Only the Fab part is …
B1 gave an IC50 (latent 65 kDa heparanase [1]) of 0.2 nM, a Kd (latent 65 kDa heparanase [2]) of 3.18 nM and an inhibition of heparanase enzymatic activity by hybridoma A54 supernatant (release of sulfate-labeled HS degradation fragments from 35S-labeled ECM) [3] of 80%.

B2: recombinant A54 mAb (antibody, V domains shown)
VH: QVQLQQSGAELAKPGASVRMSCKASGYTFTNYWMHWVKQRPGQGLEWIGYINPTTGYTEYNQKFKDKATLTADKSSSTAYMQLSSLTSEDSAVYYCARGGAGYDYDEDYAMDYWGQGTSVTVSS
VL: DIVLTQSPASLAVSLGQRATISCRASESVEYFGTSYMNWYQQKPGQPPKLLIYLASILESGIPARFSGSGSGTDFTLNIHPVEEEDAATYYCQQSNEDPYTFGGGTKLEIK
B2 gave a Kd [4] of 1 nM.
